The values that follow are results of earlier work, collected in patent US20200222508A1 (Arecor Limited, priority 2016, published 2020).

For this data set the following is noted: in vivo.
In the case of “Albiglutide: GLP-1 dimer fused to human albumin, SEQ ID NO: 5”, the circulating half-life is 96 to 170 h.

Turning to “Dulaglutide: GLP-1 analogue consisting of GLP-1(7-37) covalently linked to an Fc fragment of human IgG4, SEQ ID NO: 6”, the circulating half-life result was “approximately 5 days”.

As to “Lixisenatide: analogue of exendin-4, proline omitted at position 38, six lysine residues added at C-terminal, SEQ ID NO: 8”, the circulating half-life was 2 to 4 h.
